Reference: PMC11624264, “Phosphorylation of P-stalk proteins defines the ribosomal state for interaction with auxiliary protein factors” (EMBO Reports, 2024)
Where “and” joins values, the source holds several entries; their conditions need not be identical. Equal values may be shown once.

Legend:
[1] = molecular target: native (phosphorylated) yeast pentameric P-stalk complex ΔuL10(199-312)-(P1A–P2B)-(P1B–P2A) (S. cerevisiae) (UniProt P05317)
[2] = molecular target: P-stalk of 80S ribosomes from the SDPM yeast mutant strain (S to A mutations within all P-stalk proteins at the C-termini) (S. cerevisiae) (UniProt P05317)
[3] = molecular target: native (phosphorylated) yeast pentameric P-stalk complex ΔuL10(199-312)-(P1A–P2B)-(P1B–P2A) (S. cerevisiae), P05317; experiment: MST; P-stalk complex labelled with RED-tris-NTA on its His tag, 5 nM, titrated with unlabelled eIF5B (dilution series from 1.48 μM); PBS with 0.05% Tween-20 and 1 mg/ml BSA; 25 °C; Monolith NT.115 Pico
[4] = molecular target: P-stalk of 80S ribosomes from the SDPM yeast mutant strain (S to A mutations within all P-stalk proteins at the C-termini) (S. cerevisiae), P05317
[5] = molecular target: T1, eIF5B (UniProt P39730 1-1002); experiment: MST; P-stalk complex labelled with RED-tris-NTA on its His tag, 5 nM, titrated with unlabelled eIF5B (dilution series from 1.48 μM); PBS with 0.05% Tween-20 and 1 mg/ml BSA; 25 °C; Monolith NT.115 Pico; settings: both partners purified
T1 construct: translation initiation factor eIF5B; also called trGTPase eIF5B; source: purified as previously described (Blanchet and Ranjan, 2022)
T1 sequence (looked up): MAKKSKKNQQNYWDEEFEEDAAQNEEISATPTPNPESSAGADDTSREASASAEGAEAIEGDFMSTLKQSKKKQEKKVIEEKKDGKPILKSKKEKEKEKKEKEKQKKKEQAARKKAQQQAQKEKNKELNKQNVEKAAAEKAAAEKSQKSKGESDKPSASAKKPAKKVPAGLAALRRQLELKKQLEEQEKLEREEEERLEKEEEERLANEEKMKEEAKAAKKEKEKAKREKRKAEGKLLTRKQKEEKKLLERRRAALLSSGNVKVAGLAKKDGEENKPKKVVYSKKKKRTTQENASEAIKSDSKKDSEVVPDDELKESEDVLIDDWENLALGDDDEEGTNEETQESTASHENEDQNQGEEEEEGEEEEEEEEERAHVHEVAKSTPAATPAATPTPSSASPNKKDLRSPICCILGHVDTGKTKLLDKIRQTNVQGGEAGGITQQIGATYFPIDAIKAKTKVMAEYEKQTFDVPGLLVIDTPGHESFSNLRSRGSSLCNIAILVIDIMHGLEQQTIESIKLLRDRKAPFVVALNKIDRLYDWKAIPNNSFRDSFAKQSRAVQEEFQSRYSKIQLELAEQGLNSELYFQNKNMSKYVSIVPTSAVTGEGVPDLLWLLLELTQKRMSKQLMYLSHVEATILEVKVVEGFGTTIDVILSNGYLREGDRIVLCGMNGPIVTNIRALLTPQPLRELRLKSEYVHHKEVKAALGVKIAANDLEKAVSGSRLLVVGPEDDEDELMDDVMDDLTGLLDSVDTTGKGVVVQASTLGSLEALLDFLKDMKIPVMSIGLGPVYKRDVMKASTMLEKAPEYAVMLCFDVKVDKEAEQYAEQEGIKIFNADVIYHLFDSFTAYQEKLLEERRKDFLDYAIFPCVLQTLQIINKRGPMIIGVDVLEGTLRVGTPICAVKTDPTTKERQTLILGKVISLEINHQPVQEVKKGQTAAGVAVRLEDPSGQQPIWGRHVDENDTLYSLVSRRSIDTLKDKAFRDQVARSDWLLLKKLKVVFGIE

eEF1A (from UniProt P02994 1-458) (enzyme)
GTPase activity of eEF1A (0.05 µM, 10 µM GTP) with 0.2 µM 80S ribosomes from the WT strain (phosphorylated P-stalk on the ribosome): average GTPase rate [1]: 0.008 min⁻¹ | GTPase activity of eEF1A (0.05 µM, 10 µM GTP) with 0.2 µM 80S ribosomes from the SDPM strain (S to A, dephospho-mimicking P-stalk on the ribosome): average GTPase rate [2]: 0.019 min⁻¹

eEF2 (from UniProt P32324 1-842) (enzyme)
GTPase activity of eEF2 (0.05 µM, 10 µM GTP) with 0.2 µM 80S ribosomes from the WT strain (phosphorylated P-stalk on the ribosome): average GTPase rate [1]: 0.019 min⁻¹ | GTPase activity of eEF2 (0.05 µM, 10 µM GTP) with 0.2 µM 80S ribosomes from the SDPM strain (S to A, dephospho-mimicking P-stalk on the ribosome): average GTPase rate [2]: 0.044 min⁻¹

B1: eIF5B, P39730 1-1002 (enzyme)
chain: T1 sequence (looked up)
modifications: here or on the partner: phosphoserine in the C-terminal domain, mixed phosphorylated and dephosphorylated fractions (position not given) | phosphoserine in the C-terminal domain, mostly phosphorylated (position not given) | phosphoserine in the C-terminal domain, mostly phosphorylated (position not given) | phosphoserine in the C-terminal domain, mostly phosphorylated (position not given) …
Kd [3]: 11.2 µM | GTPase activity of eIF5B (0.05 µM, 10 µM GTP) with 0.2 µM 80S ribosomes from the SDPM strain (S to A, dephospho-mimicking P-stalk on the ribosome): average GTPase rate [4]: 0.02 min⁻¹

B2: AP-treated (dephosphorylated) yeast pentameric P-stalk complex ΔuL10(199-312)-(P1A–P2B)-(P1B–P2A) (complex, S. cerevisiae)
chain 1: SSILDITDEELVSHFVSAVSTIASISLAIGYPTLPSVGHTLINNYKDLLAVAIAASYHYPEIEDLVDRIENPEKYAAAAPAATSAASGDAAPAEEAAAEEEEESDDDMGFGLFD
chain 2: MSTESALSYAALILADSEIEISSEKLLTLTNAANVPVENIWADIFAKALDGQNLKDLLVNFSAGAAAPAGVAGGVAGGEAGEAEAEKEEEEAKEESDDDMGFGLFD
chain 3: MKYLAAYLLLVQGGNAAPSAADIKAVVESVGAEVDEARINELLSSLEGKGSLEEIIAEGQKKFATVPTGGASSAAAGAAGAAAGGDAAEEEKEEEAKEESDDDMGFGLFD
chain 4: MSDSIISFAAFILADAGLEITSDNLLTITKAAGANVDNVWADVYAKALEGKDLKEILSGFHNAGPVAGAGAASGAAAAGGDAAAEEEKEEEAAEESDDDMGFGLFD
chain 5: MKYLAAYLLLNAAGNTPDATKIKAILESVGIEIEDEKVSSVLSALEGKSVDELITEGNEKLAAVPAAGPASAGGAAAASGDAAAEEEKEEEAAEESDDDMGFGLFD
notes: ribosomal P-stalk protein P1A, S. cerevisiae; ribosomal P-stalk protein P2B, S. cerevisiae; ribosomal P-stalk protein P1B, S. cerevisiae; ribosomal P-stalk protein P2A, S. cerevisiae; For MST the complex was labelled with RED-tris-NTA on the His tag; also called dephospho P-stalk; dephospho-P-stalk complex; copies: + + + +
Kd [5]: 4.6 µM and 4.5 µM
